The nature of this data set: yeast display, Sf9 membrane polyspecificity reagent, FACS + sequencing; frameworks hold sequencing errors. A digest of the protocol: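 Genes from sorted yeast were amplified by colony PCR, read by MiSeq 2 × 250 sequencing and filtered on CDR length. These cells carried a synthetic nanobody library in Saccharomyces cerevisiae BJ5465 and were sorted by FACS into low and high (top ~1%) gates on anti-HA and streptavidin fluorescence. Polyreactivity is labelled according to the gate of origin.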
In the case of “QVQLVESGGGLVQAGGSLRLSCAASGFTFYHNAMGWYRQATGKERELVATITARGGRTYYADSVKGRFTISRDNAKNTVYLQMNSLKPVDTAVYYCNVKASRGYTYEYDYWGQGTQVTVSS”, the “polyreactivity (PSR sort gate)” value is recorded as “high polyreactivity”.

Turning to “QVQLVESGGGLVQAGGSLRLSCAASGGTFSPNTMGWYRHAPGKERELVAAISSSGSTSYADSVKGRFTISRDNAKNTVYLQMNSLKPEDTAVYYCNADDTISYYASGFDNYDYWGQGSQVTVSS”, the “polyreactivity (PSR sort gate)” value was “low polyreactivity”.

As to “QVQRVESGGGLVQAGGSLRLSCAASGSTFGIYDMGWYRQSPGKEMELVARITYSGGSRYYADSVKGRFTISRDNAKNTVYLQMNSLKPEDTAVYYCAARSWPHYFRYDYWGQGTQVTVSS”, the “polyreactivity (PSR sort gate)” value is given as “high polyreactivity”.

In the case of “QVQLVESGGGLVQAGGSLRLSCAASGRIFKYHAMGWYRQAPGKERELVAAITWGGGGTYYADSVKGRFTISRDNAKNTVYLQMNSLIPEDTAVYYCNTERWGTGKLRYNYWGPGTQVTVSS”, the “polyreactivity (PSR sort gate)” value is listed as “low polyreactivity”.

“QVQLVESGGGLVQAGGSLRLSCAASGRIFGRYAMGWYRQAPGKERELVAAISSSGGTTYYADSVKGRFTISRDKAKNTVYLQMNSLKPEDTAVYYCAKRGYYYGYDYWGQGTQVTVSS”: the “polyreactivity (PSR sort gate)” value is on record as “high polyreactivity”.

On to “QVQLVESGGGLVQAGGSLRLSCAASGFIFTPNAMGWYRQAPGKERELVATISWRGTGTYYADSVKGRFTISRDTAKNTVYLQMNSLNPVDTAVYYCAVRFYSFHYYRIYTYSVTYDYWGQGTQVTVSS”, for which the “polyreactivity (PSR sort gate)” value is “high polyreactivity”.

Take “QVQLVESGGGLVQAGGSLRLSCAASGITFRLYAMGWYRQAPGKEREFVAAISRRGGSTYYADSVKGRFTISRDNAKNTVYLQMNSLKPEDTAVYYCARYGLVYALGYWGQGTQVTVSS”: the “polyreactivity (PSR sort gate)” value was “high polyreactivity”.

Take “QVQLVESGGGLVQAGGSLRLSCAASGRTFYKYGMGWYRQAPGKERELVAAISWRTTSTYYADSVKGRFTISRDNAKNTVYLQMNSLKPEDTAVYYCNARRYLYFYGRGAQELDYWGQGTQVTVSS”: the “polyreactivity (PSR sort gate)” value is “high polyreactivity”.

Take “QVQLVESGGGLVQAGGSLRLSCAASGRTLVLYAMGWYRQAPGKERELVAAITWSGDSTYYADSVKGRFTISRDNAKNTVYLQMNSLKPEDTAVYYCAATYLNAKRGLRYDYWGQDTQVTVSS”: the “polyreactivity (PSR sort gate)” value is reported as “low polyreactivity”.

As to “QVQLVESGGGLVQAGGSLRLSCAASGSIFPRYAMGWYRQAPGKERELVAAITGSGSSTYYADSVKGRFTISRDNAKNTVYLQMNSLKPEDTAVYYCAALYGPGREYDYWGQGTQVTVSS”, the “polyreactivity (PSR sort gate)” value is reported as “low polyreactivity”.

For the sequence “QVQLVESGGGLVQAGGSLRLSCAASGYTFKTYAMGWYRQAPGKERELVAAIRTSGGSTYYADSVKGRFTISRDNAKNTVYLQMNSLKPEDTAVYYCAAAFNYYGSLYDYWGQGTQVTVSS”, the “polyreactivity (PSR sort gate)” value was “high polyreactivity”.

For “QVQLVESGGGLVQAGGSLRLSCAASGLIFLSHTMGWYRQAPGKERELVATIDGGAGSTYYADSVKGRFTFSRDNAKNTVYLQMNSLKPEDTAVYYCAATTIPGWFGSFPVSAGDYWGQGTQVTVSS”, the “polyreactivity (PSR sort gate)” value was “low polyreactivity”.

Turning to “QVQLVESGGGIVQAGGSLRLSWAASGSIFDKYAMGWYRQAHGKERELVAAIDSGDTYYADSVKGRFTISRDNAKNPVYFQMNSLKPEDTAVYYWAADDVQYEYDYWGQGTQVSVSS”, the “polyreactivity (PSR sort gate)” value is “low polyreactivity”.

As for “QDQLVESGGGLFKAGGSLRLSCAASGFIFSHYAMGWYRQAPGKERELVADISRSGTSTYYADSVTGRFTISRDNAKNTVYLQMNSLKPEDTAVYYFAKEYFFRGFNYRYDYWGQVTQVTVSS”, the “polyreactivity (PSR sort gate)” value was “high polyreactivity”.

Take “QVQLVESGGGFVQAGGSLRLSCAAYGSISVGYTMGWYIQAPGKEREFVAVITGTGGRTRYADSVKGRFTISRDNAKNTVYLQMNSLKPEDTAVYYCAAKIRWRGALYDYWGQGTQVTVSS”: the “polyreactivity (PSR sort gate)” value is reported as “high polyreactivity”.

As to “LVQLVESGGGLVQAGGSLSLSCAAYGRTFAKNAMGWYRQAPGKERDLVAVINRSGGSTYADSVKGRFTISRDNAKNTVYLQMNSLKPEDTAVYYWADYYFRSYSKTYIYPFDYWGQGSQVTVSS”, the “polyreactivity (PSR sort gate)” value was “low polyreactivity”.

As for “QVQLVESGGGLVQAGGSLRLSCAASGSTFFLNAMGWYRQAPGKERELVAAISYSDSGTNYADSVKGRFTISRDNAKNTVYLQMNSLKPEDTAVYYCATAVRPWYVTSGNYWGQGTQVTVSS”, the “polyreactivity (PSR sort gate)” value is reported as “low polyreactivity”.

“QVELVESGGGLVQAGGSLSLSCAASGFTFVGNTMGWYRQAPGKEREWGAAIRGRDGRTYYADSVKGRFTISRDKAKNTVYLQMNSLKPEETAVYYCNVDVKYSVRSEIDYWGQRTQVTVSS”: the “polyreactivity (PSR sort gate)” value was “low polyreactivity”.

Take “HVQLVESGGGLVQAGGSLRLRCAASGFTIRSYVMGWYRQAPGKERELVAAIRRSGGSTYYADSVKGRFTISRDNAKNTVYLQMNSLKPEDTAVYYCNTVSGYGQPRGDYWGQGTQVTVSS”: the “polyreactivity (PSR sort gate)” value is reported as “high polyreactivity”.

With “QVLLQESGGGLVQAGGSLRLCCAASGYISGDQYMGWYRQAPGKEREFVAGIGNGTNTNYADSVKGRFTTSRDNAKNTVYLQMNSLKPEDTAVYYCAADPSDGSTLAYWGQGTQVTVSS”, the “polyreactivity (PSR sort gate)” value is given as “high polyreactivity”.

As for “QVQLVESGGGLVQAGGSLRLSCAASGYIFRSYAMGWYRQAPGKERELVAAITRSGGSTYYADSVKGRFTISRDNAKNTVYLQMNSLKPEDTAVYYCAVLPRGSNGMDYWGQGTQVTVSS”, the “polyreactivity (PSR sort gate)” value is given as “low polyreactivity”.

Turning to “QVQLVESGVGLVQAGGSLRLSCAASGRNFAYYAMGWYRQAPGKERELVAAISSGGTTNYADSVKGRFTISRDNAKNTVYLQMNSLKPDDTAVYDCNADGWRRSRQYYYWGQGTQVTVSS”, the “polyreactivity (PSR sort gate)” value is on record as “low polyreactivity”.

In the case of “QVQLVESGGGLVQAGGSLRLSCSASGLIFSTYAMGWYRQAPGKVRELVAAISGTGSTYYADSVKGRFTISRDNAKNTVYLQMNRLKPEDTSVYYCAAGATLWLLGLKMGYWGQGTQVTVSS”, the “polyreactivity (PSR sort gate)” value is “low polyreactivity”.

“QVQHVESCGGLVQAGGSLRLSCADSGRIFGDYVMGWYRQAPGKERELVASIDTSGGSTYDADSVKGGFTISRDIAKNTVYLQMNSVKPEDSAVYYCAAERKYFVFVYYQGWYDYWGQGTQVTVSS”: the “polyreactivity (PSR sort gate)” value is “low polyreactivity”.

For the sequence “QVQLVESGGGLVQAGGSLRLICAASGLIFTHNTMGWYRQAPGKERELVAAITTSGGTTYYADSVKGRFTISRDNAKNTVYLQMNSLKPEDTAFYYCAARAPWPKWGYYYWGQGTQVTVSS”, the “polyreactivity (PSR sort gate)” value is reported as “high polyreactivity”.

For the sequence “QGQRVESGGGLVQAGGSLRLSCAGSGSTCVGYTMGWYRQAPGKERELVAAITSSDGSTYYADSVKGRFTISRDNAKNTVYLQMNSQKPEDTAVYYCAQTTRYPRGYGYWGQGTQVTVSS”, the “polyreactivity (PSR sort gate)” value is listed as “low polyreactivity”.

As to “QVQLVESGGGLVQAGGSLRLSCAASGFTFLKYAIGWYRQAPGKERELVAAISFSTGRTYYADSVKGRFTISRDNAKNTVYLQMNSLKPEDPAVYYGAAGYWPGYSLTYRGGFWGQGTQVTVSS”, the “polyreactivity (PSR sort gate)” value is recorded as “high polyreactivity”.

Regarding “QVQLVESGGGLVQAGGSLRLSCAASGSIFRPNAMGWYRQAPGKEREFVASISGRVGSTYYADSVKGRFTISRDNAKNTVYLQMYSLKPEDTAVYYCAADSRGGYKRNYWGQGTQVTVSS”, the “polyreactivity (PSR sort gate)” value is listed as “high polyreactivity”.

For the sequence “QVHLVESGGGLVQAGGSLRLSCAASGITFRTYALGGYRQAPGKERELVAAITRGDSTYYADSVKGRFTISRDNAKNTVYLQMNILKPEDTAVYYCNTETTDFRRYEYWGQGTQVTVSS”, the “polyreactivity (PSR sort gate)” value is listed as “low polyreactivity”.

On to “QVQLVESGGGLVQAGGSLRLSCAASGFIFWDYAMGWYRQAPGKEREFVATISLSVGSTYYADSVKGRFTISRDNAKNTVYLQMNSLKPEDTAVYYCAAVTWGEGFDYWGQGTQVTVSS”, for which the “polyreactivity (PSR sort gate)” value is given as “low polyreactivity”.

As for “QVQLVESGGGLVQAGGSLRLSCAASGFIFSVNTMGWYRQAPGKERELVAAISGSGGSTYYADSVKGRFTISRDNAKITVYFQMNSLKPDDTAVYYCAARYTVTYDYWGQCTQVTVSS”, the “polyreactivity (PSR sort gate)” value is recorded as “high polyreactivity”.

Turning to “QVQLVESGGGLVQAGGSLRLSCAASGRIFVLYAMGWYRHSPGKERELVAAINWSGGSTFYADSVKGRFTISRDNAKNTVYLQMNSLKPEDTAVYYCNARGLRVKYDYWGQGTQVTVSS”, the “polyreactivity (PSR sort gate)” value is “high polyreactivity”.

“QVQLVESGGGLVQAGGSLLLSCAASGRTFYYNAMGWYRQAPGKERELVAAISRGGNTNYADSVKGRFTISRDNAKNTVYLQMNSLKPEDTAVYYCSTYHRYKFYYWGQGTQVTVSS”: the “polyreactivity (PSR sort gate)” value was “high polyreactivity”.

Take “QVQLVESGGGLVQAGGSLRLSCAASGRTFRTYTMGWYRQAPGKERELVAAIRSIDGITYYADSVKGRFTISRDNAKTTVDLPKNSLKPEDTAVYYCAARYTASKPMGYWGQGTQVTVSS”: the “polyreactivity (PSR sort gate)” value is given as “high polyreactivity”.

For the sequence “QVQLVESGGGLVQAGGSLRLSCAASGSTFYGYAMGWSRQAPGKERELVAAISSSGSRTYYADSVKGRFTISRDNANNPVYLQMNSLKPEDTAVYYCAAVSTLLYYHYYTRDYWGQGTEVTVSS”, the “polyreactivity (PSR sort gate)” value is recorded as “high polyreactivity”.

“QVQLVESGGGLVQAGGSLRLSCAASGLTFGRNAMGWYRQAPCKERDLVAAITFNGGSTYYADSVKGRFTISRDNEKNTVYIQMNSLKPEDTAVYYCAARLWRRTRFDYWGQGTQVTVSS”: the “polyreactivity (PSR sort gate)” value is “high polyreactivity”.

Consider “QVQLVESGGGLVQAGGSLRLSCAASGNTFISYAMGWYRQAPGKERELVAAITWSGGSTYYADSVKGRFTISRDNAKNTVYLQMNSLKPEDTAVYYCAKFTHNYYYWGQGTQVTVSS”, for which the “polyreactivity (PSR sort gate)” value is reported as “high polyreactivity”.

“QVQLVGSGGGLVQAGGSLRLSCAASGRIFDKNAMGWYRQAPGKERELVAAISGGGRTYYADSVKGRFTISRDNAKNTVYLQMNSLKQEDTAVYYCNVPYYYTGGSYGYWGQGTQVTVSS”: the “polyreactivity (PSR sort gate)” value is given as “low polyreactivity”.

“QVQLVESGGGLVQAGGSLRLSCAASGYTLRPNGMGWYRQAPGKERELVAAISSGGSTYYADSVKGRFTISRDNAKNTVYLQMISLKPEDTAVYYCAAEYWYDYWGQGTQVTVSS”: the “polyreactivity (PSR sort gate)” value is “low polyreactivity”.

For the sequence “QVQLVESGGGLVQAGGSLRLSCAASGITFVANAMGWYRQAPGKERELVAGITQTGGSTYYADSVKGRFTISRDNAKNTVYLQMNSLKPEDTAVYYCAATYRRLRYGKLYYYWGQGTQVTVSS”, the “polyreactivity (PSR sort gate)” value is given as “high polyreactivity”.

As to “QVQLVESGGGLVQAGGSLRLSCAASGSIFVINAMGWYRQAPGKERELVAAIDWSGDSTYYADSVKGRFTISRDNAKNTVYLQMNSLKPEDTAVYYCAADLDSRGTYGRYEYWGQGTQVTVSS”, the “polyreactivity (PSR sort gate)” value is listed as “low polyreactivity”.

The record behind these values is the nanobody polyreactivity screen of Harvey et al. (2022).
